B1: telomeric dsDNA (two TTAGGG sites) (dsDNA)
DNA 1: GTTAGGGTTAGGGTTAG
DNA 2: CTAACCCTAACCCTAAC

Key:
[1] = target: T1, TRF1 (human, UniProt P54274); assay: single-molecule magnetic tweezers; settings: delta-delta G of fork opening with vs without 10 nM TRF1 (61 vs 50 kBT); 20 mM HEPES pH 7.5, 100 mM NaCl, 1 mM EDTA, 0.0063% Tween-20; EMSA 30 min on ice, 5% PAGE in 1x TBE at 4 C; magnetic tweezers at 23 C
[2] = target: T1, TRF1; assay: EMSA; dimer concentration; Hill fit; 10 nM DNA, n=3; 20 mM HEPES pH 7.5, 100 mM NaCl, 1 mM EDTA, 0.0063% Tween-20; EMSA 30 min on ice, 5% PAGE in 1x TBE at 4 C; magnetic tweezers at 23 C; settings: protein: recombinant; tags: trx tag (modified pET32a, Ni-NTA) removed with 3C protease; chain copies: 2; label: FAM on strand 2 (printed as FAM-CTAACCC..., 5'); blunt

T1 sequence (P54274 3-439): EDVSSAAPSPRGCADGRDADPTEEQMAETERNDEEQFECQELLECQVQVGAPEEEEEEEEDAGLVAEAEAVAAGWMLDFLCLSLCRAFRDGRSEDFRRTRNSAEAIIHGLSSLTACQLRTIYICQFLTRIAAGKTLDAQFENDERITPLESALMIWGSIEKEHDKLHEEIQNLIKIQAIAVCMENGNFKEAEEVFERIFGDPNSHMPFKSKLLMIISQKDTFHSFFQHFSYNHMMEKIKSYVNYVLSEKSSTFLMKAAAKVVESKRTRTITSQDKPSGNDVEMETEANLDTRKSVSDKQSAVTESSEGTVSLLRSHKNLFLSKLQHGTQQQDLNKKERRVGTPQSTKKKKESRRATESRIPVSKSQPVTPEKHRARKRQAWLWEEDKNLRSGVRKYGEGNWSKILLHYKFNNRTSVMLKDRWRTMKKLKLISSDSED

Row | Molecule | binding signal [1] [kBT] | Kd [2] [nM]
1 | short telomeric hairpin (13 TTAGGG repeats) | 11 | –
2 | B1 | – | 17.5 ± 0.7
